{
  "source": "paper PMC9482650",
  "about": "“Quantitative fragmentomics allow affinity mapping of interactomes” (Nature Communications, 2022)",
  "experiment_in_all_cases": "holdup assay",
  "set-up_in_all_cases": "key: below the threshold = too weak to quantify, mostly under pKd 3.1 to 4",
  "key": {"LNX2_2, Q8N448": {"target": "T1, LNX2_2, Q8N448", "T1 sequence (Q8N448 334-432, limits assumed, looked up)": "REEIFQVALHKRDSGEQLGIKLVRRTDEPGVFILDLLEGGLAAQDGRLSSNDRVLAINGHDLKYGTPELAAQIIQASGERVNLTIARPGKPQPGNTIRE"}, "MAGI2_3, Q86UL8": {"target": "MAGI2_3, Q86UL8", "sequence (Q86UL8 600-682)": "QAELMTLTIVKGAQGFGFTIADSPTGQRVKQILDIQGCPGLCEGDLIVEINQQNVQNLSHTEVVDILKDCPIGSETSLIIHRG"}, "MAGI1_1, Q96QZ7": {"target": "MAGI1_1, Q96QZ7", "sequence (Q96QZ7 1-106)": "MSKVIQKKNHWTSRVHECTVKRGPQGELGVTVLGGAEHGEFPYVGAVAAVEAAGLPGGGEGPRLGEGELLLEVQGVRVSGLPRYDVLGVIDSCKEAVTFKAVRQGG"}, "MAST1, Q9Y2H9": {"target": "MAST1, Q9Y2H9", "sequence (Q9Y2H9 962-1065)": "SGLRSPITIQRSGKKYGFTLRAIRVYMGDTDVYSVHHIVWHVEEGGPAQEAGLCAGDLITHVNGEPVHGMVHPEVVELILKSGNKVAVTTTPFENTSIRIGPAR"}, "LNX1_3, Q8TBB1": {"target": "LNX1_3, Q8TBB1", "sequence (Q8TBB1 500-596)": "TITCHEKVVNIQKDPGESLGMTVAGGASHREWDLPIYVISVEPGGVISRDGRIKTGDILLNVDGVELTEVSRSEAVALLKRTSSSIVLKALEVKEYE"}, "SHANK1, Q9Y566": {"target": "T2, SHANK1, Q9Y566", "T2 sequence (Q9Y566 658-767, limits assumed, looked up)": "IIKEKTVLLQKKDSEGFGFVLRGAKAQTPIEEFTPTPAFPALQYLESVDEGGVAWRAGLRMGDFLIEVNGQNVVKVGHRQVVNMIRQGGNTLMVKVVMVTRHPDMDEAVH"}, "ARHGEF11, O15085": {"target": "T3, ARHGEF11, O15085", "T3 sequence (O15085 42-136, limits assumed, looked up)": "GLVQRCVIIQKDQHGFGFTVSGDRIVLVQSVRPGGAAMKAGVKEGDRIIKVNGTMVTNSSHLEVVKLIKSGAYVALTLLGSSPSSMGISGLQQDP"}, "MAGI2_5, Q86UL8": {"target": "MAGI2_5, Q86UL8", "sequence (Q86UL8 915-1017)": "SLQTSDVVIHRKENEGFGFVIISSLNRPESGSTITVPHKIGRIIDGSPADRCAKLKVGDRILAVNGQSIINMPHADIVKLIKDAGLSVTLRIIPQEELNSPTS"}, "APBA1_2, Q02410": {"target": "T4, APBA1_2, Q02410", "T4 sequence (Q02410 742-832, limits assumed, looked up)": "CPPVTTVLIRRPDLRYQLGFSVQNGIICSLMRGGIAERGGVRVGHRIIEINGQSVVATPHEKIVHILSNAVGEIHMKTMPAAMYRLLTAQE"}, "PDZRN3_1, Q9UPQ7": {"target": "T5, PDZRN3_1, Q9UPQ7", "T5 sequence (Q9UPQ7 244-349, limits assumed, looked up)": "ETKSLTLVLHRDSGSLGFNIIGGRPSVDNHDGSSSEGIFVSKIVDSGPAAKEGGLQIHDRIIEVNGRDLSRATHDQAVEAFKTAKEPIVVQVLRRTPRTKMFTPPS"}, "MAGI2_2, Q86UL8": {"target": "MAGI2_2, Q86UL8", "sequence (Q86UL8 410-522)": "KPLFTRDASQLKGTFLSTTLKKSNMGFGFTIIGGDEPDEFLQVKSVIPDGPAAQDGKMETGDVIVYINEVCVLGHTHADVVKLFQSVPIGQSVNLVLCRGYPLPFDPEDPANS"}, "AHNAK1, Q09666": {"target": "AHNAK1, Q09666", "sequence (Q09666 4-100)": "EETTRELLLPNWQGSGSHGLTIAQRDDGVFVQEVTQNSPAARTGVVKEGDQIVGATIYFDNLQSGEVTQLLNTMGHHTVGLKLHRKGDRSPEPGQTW"}, "GRIP2_4, Q9C0E4": {"target": "GRIP2_4, Q9C0E4", "sequence (Q9C0E4 446-548)": "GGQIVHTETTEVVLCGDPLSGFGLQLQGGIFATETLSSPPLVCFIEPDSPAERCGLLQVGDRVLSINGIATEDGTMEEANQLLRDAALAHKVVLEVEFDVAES"}, "PTPN13_1, Q12923": {"target": "T6, PTPN13_1, Q12923", "T6 sequence (Q12923 1088-1188, limits assumed, looked up)": "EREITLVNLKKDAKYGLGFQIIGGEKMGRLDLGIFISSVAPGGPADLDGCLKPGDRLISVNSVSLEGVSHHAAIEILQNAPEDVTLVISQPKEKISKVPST"}, "SCRIB_3, Q14160": {"target": "SCRIB_3, Q14160", "sequence (Q14160 999-1103)": "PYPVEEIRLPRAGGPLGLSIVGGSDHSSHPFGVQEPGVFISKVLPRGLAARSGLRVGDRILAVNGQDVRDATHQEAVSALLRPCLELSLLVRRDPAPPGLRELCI"}, "ARHGEF12, Q9NZN5-2": {"target": "ARHGEF12, Q9NZN5-2", "sequence (Q9NZN5 other isoform, or with tags, fused parts or gaps)": "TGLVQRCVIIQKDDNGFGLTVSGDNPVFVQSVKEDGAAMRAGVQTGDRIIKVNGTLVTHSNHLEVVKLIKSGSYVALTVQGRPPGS"}, "NHERF2_2, Q15599": {"target": "NHERF2_2, Q15599", "sequence (Q15599 142-238)": "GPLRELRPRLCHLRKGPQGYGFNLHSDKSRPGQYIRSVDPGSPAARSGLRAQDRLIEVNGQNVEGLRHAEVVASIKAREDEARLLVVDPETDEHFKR"}, "FRMPD3, Q5JV73": {"target": "FRMPD3, Q5JV73", "sequence (Q5JV73 12-100)": "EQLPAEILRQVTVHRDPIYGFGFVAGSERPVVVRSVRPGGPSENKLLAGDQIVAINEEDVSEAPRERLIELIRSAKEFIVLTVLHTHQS"}, "Inadl_9, Q8NI35": {"target": "Inadl_9, Q8NI35", "sequence (Q8NI35 1530-1615)": "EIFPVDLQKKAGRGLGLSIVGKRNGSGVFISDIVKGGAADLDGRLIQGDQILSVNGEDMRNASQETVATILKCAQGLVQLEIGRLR"}, "APBA2_1, Q99767": {"target": "T7, APBA2_1, Q99767", "T7 sequence (Q99767 563-664, limits assumed, looked up)": "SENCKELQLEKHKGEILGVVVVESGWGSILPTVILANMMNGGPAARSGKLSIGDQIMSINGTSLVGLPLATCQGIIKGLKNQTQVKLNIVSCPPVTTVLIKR"}, "MAGI2_4, Q86UL8": {"target": "MAGI2_4, Q86UL8", "sequence (Q86UL8 772-865)": "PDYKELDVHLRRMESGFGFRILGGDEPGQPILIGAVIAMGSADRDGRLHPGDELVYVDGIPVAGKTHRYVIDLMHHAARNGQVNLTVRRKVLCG"}, "Inadl_4, Q8NI35": {"target": "Inadl_4, Q8NI35", "sequence (Q8NI35 547-651)": "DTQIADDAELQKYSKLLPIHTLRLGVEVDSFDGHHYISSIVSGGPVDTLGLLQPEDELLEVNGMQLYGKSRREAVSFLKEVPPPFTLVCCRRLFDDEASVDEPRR"}, "DLG5_1, Q8TDM6": {"target": "DLG5_1, Q8TDM6", "sequence (Q8TDM6 617-713)": "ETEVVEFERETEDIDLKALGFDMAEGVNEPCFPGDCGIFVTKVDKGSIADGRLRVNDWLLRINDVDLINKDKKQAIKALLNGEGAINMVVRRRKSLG"}, "DLG4_3, P78352": {"target": "DLG4_3, P78352", "sequence (P78352 306-403)": "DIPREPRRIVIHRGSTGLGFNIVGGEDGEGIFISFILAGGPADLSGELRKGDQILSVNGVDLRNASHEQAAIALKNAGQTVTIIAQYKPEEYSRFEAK"}, "HTRA4, P83105": {"target": "T8, HTRA4, P83105", "T8 sequence (P83105 378-476, limits assumed, looked up)": "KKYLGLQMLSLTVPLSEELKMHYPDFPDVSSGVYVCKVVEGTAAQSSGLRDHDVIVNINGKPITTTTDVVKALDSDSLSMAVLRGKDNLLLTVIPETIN"}, "NOS1, P29475": {"target": "NOS1, P29475", "sequence (P29475 9-101)": "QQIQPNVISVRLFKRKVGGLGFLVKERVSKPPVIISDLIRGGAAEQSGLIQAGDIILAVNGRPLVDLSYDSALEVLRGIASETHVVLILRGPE"}, "HTRA3, P83110": {"target": "T9, HTRA3, P83110", "T9 sequence (P83110 354-453, limits assumed, looked up)": "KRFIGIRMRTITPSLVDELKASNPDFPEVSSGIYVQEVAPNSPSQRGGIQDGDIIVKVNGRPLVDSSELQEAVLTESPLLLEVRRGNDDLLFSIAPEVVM"}, "Inadl_3, Q8NI35": {"target": "Inadl_3, Q8NI35", "sequence (Q8NI35 359-469)": "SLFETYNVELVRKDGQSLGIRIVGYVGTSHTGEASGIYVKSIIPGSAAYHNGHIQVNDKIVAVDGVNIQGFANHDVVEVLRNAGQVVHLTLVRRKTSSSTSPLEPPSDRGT"}, "[1]": {"conditions": "plain residues with an end cap or a label only (N-terminal biotin on a linker: ado-ado)"}, "[2]": {"conditions": "plain residues with an end cap or a label only (N-terminal biotin on a linker: ttds)"}},
  "data": [
    {"binder": "IGHEDLETAV", "note": "[DGKI, O75912]", "values": [
      {"measurement": "pKd", "setting": "LNX2_2, Q8N448; [1]", "value": 3.73},
      {"measurement": "pKd", "setting": "MAGI2_3, Q86UL8; [1]", "value": 4.61},
      {"measurement": "pKd", "setting": "MAGI1_1, Q96QZ7; [1]", "value": "below the threshold"},
      {"measurement": "pKd", "setting": "MAST1, Q9Y2H9; [1]", "value": 4.89},
      {"measurement": "pKd", "setting": "LNX1_3, Q8TBB1; [1]", "value": "below the threshold"},
      {"measurement": "pKd", "setting": "SHANK1, Q9Y566; [1]", "value": 4.41},
      {"measurement": "pKd", "setting": "ARHGEF11, O15085; [1]", "value": 4.55},
      {"measurement": "pKd", "setting": "MAGI2_5, Q86UL8; [1]", "value": 4.82},
      {"measurement": "pKd", "setting": "APBA1_2, Q02410; [1]", "value": 4.03},
      {"measurement": "pKd", "setting": "PDZRN3_1, Q9UPQ7; [1]", "value": 4.75},
      {"measurement": "pKd", "setting": "MAGI2_2, Q86UL8; [1]", "value": 3.74},
      {"measurement": "pKd", "setting": "AHNAK1, Q09666; [1]", "value": "below the threshold"},
      {"measurement": "pKd", "setting": "GRIP2_4, Q9C0E4; [1]", "value": "below the threshold"},
      {"measurement": "pKd", "setting": "PTPN13_1, Q12923; [1]", "value": "below the threshold"},
      {"measurement": "pKd", "setting": "SCRIB_3, Q14160; [1]", "value": 4.91},
      {"measurement": "pKd", "setting": "ARHGEF12, Q9NZN5-2; [1]", "value": 3.49},
      {"measurement": "pKd", "setting": "NHERF2_2, Q15599; [1]", "value": 4.12},
      {"measurement": "pKd", "setting": "FRMPD3, Q5JV73; [1]", "value": "below the threshold"},
      {"measurement": "pKd", "setting": "Inadl_9, Q8NI35; [1]", "value": 3.49},
      {"measurement": "pKd", "setting": "APBA2_1, Q99767; [1]", "value": "below the threshold"},
      {"measurement": "pKd", "setting": "MAGI2_4, Q86UL8; [1]", "value": "below the threshold"},
      {"measurement": "pKd", "setting": "Inadl_4, Q8NI35; [1]", "value": "below the threshold"},
      {"measurement": "pKd", "setting": "DLG5_1, Q8TDM6; [1]", "value": "below the threshold"},
      {"measurement": "pKd", "setting": "DLG4_3, P78352; [1]", "value": "below the threshold"},
      {"measurement": "pKd", "setting": "HTRA4, P83105; [1]", "value": "below the threshold"},
      {"measurement": "pKd", "setting": "NOS1, P29475; [1]", "value": 4.17},
      {"measurement": "pKd", "setting": "HTRA3, P83110; [1]", "value": "below the threshold"},
      {"measurement": "pKd", "setting": "Inadl_3, Q8NI35; [1]", "value": 3.53}
    ]},
    {"binder": "GARVSKETPL", "note": "[MAPK12, P53778]", "values": [
      {"measurement": "pKd", "setting": "LNX2_2, Q8N448; [2]", "value": "below the threshold"},
      {"measurement": "pKd", "setting": "MAGI2_3, Q86UL8; [2]", "value": "below the threshold"},
      {"measurement": "pKd", "setting": "MAGI1_1, Q96QZ7; [2]", "value": "below the threshold"},
      {"measurement": "pKd", "setting": "MAST1, Q9Y2H9; [2]", "value": 4.65},
      {"measurement": "pKd", "setting": "LNX1_3, Q8TBB1; [2]", "value": "below the threshold"},
      {"measurement": "pKd", "setting": "SHANK1, Q9Y566; [2]", "value": 3.56},
      {"measurement": "pKd", "setting": "ARHGEF11, O15085; [2]", "value": 3.48},
      {"measurement": "pKd", "setting": "MAGI2_5, Q86UL8; [2]", "value": "below the threshold"},
      {"measurement": "pKd", "setting": "APBA1_2, Q02410; [2]", "value": 3.74},
      {"measurement": "pKd", "setting": "PDZRN3_1, Q9UPQ7; [2]", "value": 4.84},
      {"measurement": "pKd", "setting": "MAGI2_2, Q86UL8; [2]", "value": 3.83},
      {"measurement": "pKd", "setting": "AHNAK1, Q09666; [2]", "value": "below the threshold"},
      {"measurement": "pKd", "setting": "GRIP2_4, Q9C0E4; [2]", "value": "below the threshold"},
      {"measurement": "pKd", "setting": "PTPN13_1, Q12923; [2]", "value": "below the threshold"},
      {"measurement": "pKd", "setting": "SCRIB_3, Q14160; [2]", "value": 5.07},
      {"measurement": "pKd", "setting": "ARHGEF12, Q9NZN5-2; [2]", "value": 4.34},
      {"measurement": "pKd", "setting": "NHERF2_2, Q15599; [2]", "value": 4.09},
      {"measurement": "pKd", "setting": "FRMPD3, Q5JV73; [2]", "value": "below the threshold"},
      {"measurement": "pKd", "setting": "Inadl_9, Q8NI35; [2]", "value": "below the threshold"},
      {"measurement": "pKd", "setting": "APBA2_1, Q99767; [2]", "value": "below the threshold"},
      {"measurement": "pKd", "setting": "MAGI2_4, Q86UL8; [2]", "value": "below the threshold"},
      {"measurement": "pKd", "setting": "Inadl_4, Q8NI35; [2]", "value": "below the threshold"},
      {"measurement": "pKd", "setting": "DLG5_1, Q8TDM6; [2]", "value": "below the threshold"},
      {"measurement": "pKd", "setting": "DLG4_3, P78352; [2]", "value": 4.03},
      {"measurement": "pKd", "setting": "HTRA4, P83105; [2]", "value": "below the threshold"},
      {"measurement": "pKd", "setting": "NOS1, P29475; [2]", "value": 3.82},
      {"measurement": "pKd", "setting": "HTRA3, P83110; [2]", "value": "below the threshold"},
      {"measurement": "pKd", "setting": "Inadl_3, Q8NI35; [2]", "value": "below the threshold"}
    ]}
  ]
}
